The text below walks through data of paper PMC6486636 (2019).

The target in assay [1] is LARP4A (1-287), N-terminal domain (Homo sapiens (Human), UniProt Q71RC2). Nature of the assay: competition EMSA (MLLE displacing 32P-oligoA15 from NTD); mutually exclusive with oligoA15 RNA; measured by competition with preformed NTD-oligoA15 complex. On the technique in general: In EMSA bound probe runs differently from free probe, usually more slowly.
The target in assay [2] is T1, His-SUMO-MLLE (PABPC1 MLLE domain 544-626 fused with a His-tagged SUMO tag) (Homo sapiens (Human), UniProt P11940).
T1 chain: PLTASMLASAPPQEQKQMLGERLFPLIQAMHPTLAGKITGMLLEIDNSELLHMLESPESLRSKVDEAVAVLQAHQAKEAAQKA
The assay can be described thus: Ni-NTA pull-down, SDS-PAGE.

LARP4A (1-287), N-terminal domain (Homo sapiens (Human), UniProt Q71RC2), sequence (Q71RC2 1-287): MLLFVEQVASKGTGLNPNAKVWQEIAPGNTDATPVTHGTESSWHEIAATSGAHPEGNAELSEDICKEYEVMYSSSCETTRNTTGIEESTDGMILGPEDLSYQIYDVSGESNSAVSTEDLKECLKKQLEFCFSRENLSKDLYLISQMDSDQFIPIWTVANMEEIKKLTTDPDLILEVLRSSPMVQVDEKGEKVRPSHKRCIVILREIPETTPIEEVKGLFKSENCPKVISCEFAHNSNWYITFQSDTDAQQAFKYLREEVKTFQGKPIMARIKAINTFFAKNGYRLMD

B1: PABPC1 MLLE (544-626) (protein)
chain: T1 chain
For B1, the binding result in assay [1] was “binds”.

B2: LARP4A (1-287), N-terminal domain (protein)
chain: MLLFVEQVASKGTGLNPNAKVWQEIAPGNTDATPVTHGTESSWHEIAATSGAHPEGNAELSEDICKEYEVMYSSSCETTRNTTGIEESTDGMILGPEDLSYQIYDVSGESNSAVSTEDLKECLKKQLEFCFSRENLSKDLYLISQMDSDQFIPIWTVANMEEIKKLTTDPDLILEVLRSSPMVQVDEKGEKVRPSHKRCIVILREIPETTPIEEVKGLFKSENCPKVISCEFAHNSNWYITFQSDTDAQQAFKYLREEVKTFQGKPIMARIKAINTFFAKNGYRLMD
As for B2, the binding result in assay [2] is recorded as “binds”.
